Test [1] concerns the target Complement factor H (human) (UniProt P08603). Description: ELISA.
For the next test, the target named is T1, fibrinogen (UniProt P02671-2 20-644; P02675 31-491; P02679-2 27-437).
T1 sequence (looked up) 1: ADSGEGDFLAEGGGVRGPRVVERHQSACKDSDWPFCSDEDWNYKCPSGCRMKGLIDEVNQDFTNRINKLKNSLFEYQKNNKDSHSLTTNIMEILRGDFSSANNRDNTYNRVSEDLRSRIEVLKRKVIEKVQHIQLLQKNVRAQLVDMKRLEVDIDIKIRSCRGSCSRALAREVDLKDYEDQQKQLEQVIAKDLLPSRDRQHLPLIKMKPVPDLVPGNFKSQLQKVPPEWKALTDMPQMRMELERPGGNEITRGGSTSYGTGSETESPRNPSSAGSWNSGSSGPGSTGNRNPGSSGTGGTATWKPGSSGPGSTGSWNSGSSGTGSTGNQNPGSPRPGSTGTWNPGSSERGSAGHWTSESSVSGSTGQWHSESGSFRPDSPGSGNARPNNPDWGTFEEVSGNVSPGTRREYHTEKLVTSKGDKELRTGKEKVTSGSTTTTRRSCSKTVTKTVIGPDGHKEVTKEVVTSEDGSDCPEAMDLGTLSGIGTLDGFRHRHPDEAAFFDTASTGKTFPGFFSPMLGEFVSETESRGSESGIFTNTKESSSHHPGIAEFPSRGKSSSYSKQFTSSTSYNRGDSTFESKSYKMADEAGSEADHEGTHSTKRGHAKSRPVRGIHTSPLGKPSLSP
T1 sequence (looked up) 2: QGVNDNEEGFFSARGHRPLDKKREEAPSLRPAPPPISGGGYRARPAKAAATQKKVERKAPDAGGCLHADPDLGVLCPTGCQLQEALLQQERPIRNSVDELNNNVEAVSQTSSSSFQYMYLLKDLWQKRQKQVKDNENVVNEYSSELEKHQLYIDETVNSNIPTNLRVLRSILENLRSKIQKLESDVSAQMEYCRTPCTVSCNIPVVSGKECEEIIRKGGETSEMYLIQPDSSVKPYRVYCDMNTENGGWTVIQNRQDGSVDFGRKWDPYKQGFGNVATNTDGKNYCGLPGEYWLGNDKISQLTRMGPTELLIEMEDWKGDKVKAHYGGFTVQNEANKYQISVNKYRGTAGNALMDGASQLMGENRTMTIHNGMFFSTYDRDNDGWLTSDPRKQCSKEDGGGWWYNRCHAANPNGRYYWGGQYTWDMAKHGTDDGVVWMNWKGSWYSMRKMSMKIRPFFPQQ
T1 sequence (looked up) 3: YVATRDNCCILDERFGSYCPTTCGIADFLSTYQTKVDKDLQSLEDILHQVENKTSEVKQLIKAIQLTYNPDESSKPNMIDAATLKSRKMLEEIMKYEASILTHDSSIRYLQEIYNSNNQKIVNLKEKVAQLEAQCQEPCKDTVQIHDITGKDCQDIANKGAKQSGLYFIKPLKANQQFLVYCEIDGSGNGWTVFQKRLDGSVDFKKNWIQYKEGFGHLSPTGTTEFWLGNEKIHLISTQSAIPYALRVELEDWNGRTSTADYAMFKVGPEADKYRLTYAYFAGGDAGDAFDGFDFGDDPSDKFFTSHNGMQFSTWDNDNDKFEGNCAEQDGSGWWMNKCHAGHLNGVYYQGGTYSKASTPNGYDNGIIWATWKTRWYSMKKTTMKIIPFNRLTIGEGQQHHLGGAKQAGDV
The experiment in a line: SPR. In general terms: SPR reads the build-up and loss of mass on a sensor chip optically.

The next test deals with PPACK-thrombin. The experiment in a line: SPR.

Usually Kd stands for the concentration at which binding is half-saturated. Low readings indicate tighter binding, high ones weaker binding.

PPACK-thrombin (enzyme) gave an FH-thrombin complex formed in plasma in test [1] of 62 nM.

B1: Complement factor H (natural protein, human, UniProt P08603 19-1231, looked up)
chain: EDCNELPPRRNTEILTGSWSDQTYPEGTQAIYKCRPGYRSLGNVIMVCRKGEWVALNPLRKCQKRPCGHPGDTPFGTFTLTGGNVFEYGVKAVYTCNEGYQLLGEINYRECDTDGWTNDIPICEVVKCLPVTAPENGKIVSSAMEPDREYHFGQAVRFVCNSGYKIEGDEEMHCSDDGFWSKEKPKCVEISCKSPDVINGSPISQKIIYKENERFQYKCNMGYEYSERGDAVCTESGWRPLPSCEEKSCDNPYIPNGDYSPLRIKHRTGDEITYQCRNGFYPATRGNTAKCTSTGWIPAPRCTLKPCDYPDIKHGGLYHENMRRPYFPVAVGKYYSYYCDEHFETPSGSYWDHIHCTQDGWSPAVPCLRKCYFPYLENGYNQNYGRKFVQGKSIDVACHPGYALPKAQTTVTCMENGWSPTPRCIRVKTCSKSSIDIENGFISESQYTYALKEKAKYQCKLGYVTADGETSGSITCGKDGWSAQPTCIKSCDIPVFMNARTKNDFTWFKLNDTLDYECHDGYESNTGSTTGSIVCGYNGWSDLPICYERECELPKIDVHLVPDRKKDQYKVGEVLKFSCKPGFTIVGPNSVQCYHFGLSPDLPICKEQVQSCGPPPELLNGNVKEKTKEEYGHSEVVEYYCNPRFLMKGPNKIQCVDGEWTTLPVCIVEESTCGDIPELEHGWAQLSSPPYYYGDSVEFNCSESFTMIGHRSITCIHGVWTQLPQCVAIDKLKKCKSSNLIILEEHLKNKKEFDHNSNIRYRCRGKEGWIHTVCINGRWDPEVNCSMAQIQLCPPPPQIPNSHNMTTTLNYRDGEKVSVLCQENYLIQEGEEITCKDGRWQSIPLCVEKIPCSQPPQIEHGTINSSRSSQESYAHGTKLSYTCEGGFRISEENETTCYMGKWSSPPQCEGLPCKSPPEISHGVVAHMSDSYQYGEEVTYKCFEGFGIDGPAIAKCLGEKWSHPPSCIKTDCLSLPSFENAIPMGEKKDVYKAGEQVTYTCATYYKMDGASNVTCINSRWTGRPTCRDTSCVNPPTVQNAYIVSRQMSKYPSGERVRYQCRSPYEMFGDEEVMCLNGNWTEPPQCKDSTGKCGPPPPIDNGDITSFPLSVYAPASSVEYQCQNLYQLEGNKRITCRNGQWSEPPKCLHPCVISREIMENYNIALRWTAKQKLYSRTGESVEFVCKRGYRLSSRSHTLRTTCWDGKLEYPTCAKR
B1: the Kd with fibrinogen was 38.2 nM; in the test with PPACK-thrombin, 29.7 nM.

The values above are taken from publication doi:10.1101/2021.07.22.452893 (bioRxiv, 2021).
